Experimental data as given in PMC10939272, “Structural insights into the octamerization of glycerol dehydrogenase” (PLOS ONE, 2024).

Target: the molecule itself
Assay: crystal structure; hanging-drop vapor diffusion, 20°C, pH 4.2, with ZnCl2 and NAD+, soaked in glycerol; space group I422, 2.0 Å; octamer by non-crystallographic 2-fold and crystallographic 4-fold symmetry

B1: Escherichia coli glycerol dehydrogenase (GDH), full-length (1-367) (enzyme, E. coli K12 MG1655, UniProt P0A9S5 1-367, looked up)
chain: MDRIIQSPGKYIQGADVINRLGEYLKPLAERWLVVGDKFVLGFAQSTVEKSFKDAGLVVEIAPFGGECSQNEIDRLRGIAETAQCGAILGIGGGKTLDTAKALAHFMGVPVAIAPTIASTDAPCSALSVIYTDEGEFDRYLLLPNNPNMVIVDTKIVAGAPARLLAAGIGDALATWFEARACSRSGATTMAGGKCTQAALALAELCYNTLLEEGEKAMLAAEQHVVTPALERVIEANTYLSGVGFESGGLAAAHAVHNGLTAIPDAHHYYHGEKVAFGTLTQLVLENAPVEEIETVAALSHAVGLPITLAQLDIKEDVPAKMRIVAEAACAEGETIHNMPGGATPDQVYAALLVADQYGQRFLQEWE
notes: glycerol dehydrogenase (GDH; EC 1.1.1.6) of E. coli K12 MG1655, full length, residues 1-367; Homo-octamer; Two protomers (Mol-A, Mol-B) lie in the asymmetric unit and the octamer is formed by crystallographic 4-fold symmetry; Crystallised with Zn2+ and NAD+ and soaked in glycerol; also called E. coli GDH; GDH^NAD∙Gly; source: E. coli BL21 (DE3), purified (Ni-IDA, size-exclusion chromatography)
stoichiometry N: 8
